From patent publication US20210214461A1
Numbering of substitutions follows the chain as printed.

B1: scFv105 (scFv)
scFv: DIVMTQSPSSLSASVGDRVTLTCTASQSVSNDVVWYQQRPGKAPKLLIYSAFNRYTGVPSRFSGRGYGTDFTLTISSLQPEDVAVYYCQQDYNSPRTFGQGTKLEVKRGGGGSGGGGSGGGGSSGGGSQVQLVQSGAEVKKPGASVKVSCTASGYTFTHYGMNWVRQAPGKGLEWMGWINTYTGEPTYADKFKDRFTFSLETSASTVYMELTSLTSDDTAVYYCARERGDAMDYWGQGTLVTVSS
B2: scFv 903 (scFv)
scFv: EIVMTQSPSTLSASVGDRVIITCQASEIIHSWLAWYQQKPGKAPKLLIYLASTLASGVPSRFSGSGSGAEFTLTISSLQPDDFATYYCQNVYLASTNGANFGQGTKLTVLGGGGGSGGGGSGGGGSGGGGSEVQLVESGGGLVQPGGSLRLSCTASGFSLTDYYYMTWVRQAPGKGLEWVGFIDPDDDPYYATWAKGRFTISRDTSKNTVYLQMNSLRAEDTAVYYCAGGDHNSGWGLDIWGQGTLVTVSS
B3: scFv 961 (scFv)
scFv: B2 scFv with L142S, V224T, L246T
B4: scFv 791 (scFv)
scFv: MEIVMTQSPSTLSASLGDRVIITCQSSQSVYGNIWMAWYQQKSGKAPKLLIYQASKLASGVPSRFSGSGSGAEFSLTISSLQPDDFATYYCQGNFNTGDRYAFGQGTKLTVLGGGGGSGGGGSGGGGSGGGGSEVQLVESGGGLVQPGGSLRLSCTASGFTISRSYWICWVRQAPGKGLEWVACIYGDNDITPLYANWAKGRFPVSTDTSKNTVYLQMNSLRAEDTAVYYCARLGYADYAYDLWGQGTLVTVSS

These binders were tested against pre-existing anti-scFv903 antibodies in human serum H60 (human) (assay: competition ADA bridging ELISA).

signal change in competition ELISA (% reduction in OD) [%]	Binder
-11	B1
-96	B2
-1	B3
-95	B4

These binders were tested against pre-existing anti-scFv903 antibodies in human serum H115 (human) (assay: competition ADA bridging ELISA).

signal change in competition ELISA (% reduction in OD) [%]	Binder
-60	B1
-95	B2
-31	B3
-95	B4

The binders below were run against pre-existing anti-scFv903 antibodies in human serum H15 (human) (assay: competition ADA bridging ELISA).

signal change in competition ELISA (% reduction in OD) [%]	Binder
-69	B1
-91	B2
-90	B4

Each binder was assayed against pre-existing anti-scFv903 antibodies in human serum H40 (human) (assay: competition ADA bridging ELISA).

signal change in competition ELISA (% reduction in OD) [%]	Binder
4	B1
-95	B2
-2	B3
-95	B4

These binders were tested against pre-existing anti-scFv903 antibodies in human serum H54 (human) (assay: competition ADA bridging ELISA).

signal change in competition ELISA (% reduction in OD) [%]	Binder
-61	B1
-93	B2
-69	B3
-92	B4

Each binder was assayed against pre-existing anti-scFv903 antibodies in human serum H81 (human) (assay: competition ADA bridging ELISA).

signal change in competition ELISA (% reduction in OD) [%]	Binder
-18	B1
-95	B2
-9	B3
-94	B4

Each binder was assayed against pre-existing anti-scFv903 antibodies in human serum H86 (human) (assay: competition ADA bridging ELISA).

signal change in competition ELISA (% reduction in OD) [%]	Binder
-86	B2
-68	B3
-87	B4

What follows are binders tested against pre-existing anti-scFv903 antibodies in human serum H19 (human) (assay: competition ADA bridging ELISA).

signal change in competition ELISA (% reduction in OD) [%]	Binder
-73	B1
-90	B2
-64	B3
-84	B4

The binders below were run against pre-existing anti-scFv903 antibodies in human serum H76 (human) (assay: competition ADA bridging ELISA).

signal change in competition ELISA (% reduction in OD) [%]	Binder
-18	B1
-97	B2
-36	B3
-96	B4

The binders below were run against pre-existing anti-scFv903 antibodies in human serum H26 (human) (assay: competition ADA bridging ELISA).

signal change in competition ELISA (% reduction in OD) [%]	Binder
-80	B1
-92	B2
0	B3
-97	B4

Each binder was assayed against pre-existing anti-scFv903 antibodies in human serum H96 (human) (assay: competition ADA bridging ELISA).

signal change in competition ELISA (% reduction in OD) [%]	Binder
-29	B1
-80	B2
-78	B3
-79	B4

What follows are binders tested against pre-existing anti-scFv903 antibodies in human serum H29 (human) (assay: competition ADA bridging ELISA).

signal change in competition ELISA (% reduction in OD) [%]	Binder
-51	B1
-79	B2
-22	B3
-79	B4

The binders below were run against pre-existing anti-scFv903 antibodies in human serum H46 (human) (assay: competition ADA bridging ELISA).

signal change in competition ELISA (% reduction in OD) [%]	Binder
-67	B1
-80	B2
-40	B3
-77	B4

These binders were tested against pre-existing anti-scFv903 antibodies in human serum H55 (human) (assay: competition ADA bridging ELISA).

signal change in competition ELISA (% reduction in OD) [%]	Binder
-72	B1
-89	B2
-15	B3
-96	B4

These binders were tested against pre-existing anti-scFv903 antibodies in human serum H63 (human) (assay: competition ADA bridging ELISA).

signal change in competition ELISA (% reduction in OD) [%]	Binder
-80	B1
-97	B2
-36	B3
-20	B4

Each binder was assayed against pre-existing anti-scFv903 antibodies in human serum H79 (human) (assay: competition ADA bridging ELISA).

signal change in competition ELISA (% reduction in OD) [%]	Binder
-41	B1
-97	B2
-74	B3
-97	B4

Each binder was assayed against pre-existing anti-scFv903 antibodies in human serum H105 (human) (assay: competition ADA bridging ELISA).

signal change in competition ELISA (% reduction in OD) [%]	Binder
2	B1
-97	B2
7	B3
-97	B4

What follows are binders tested against pre-existing anti-scFv903 antibodies in human serum H14 (human) (assay: competition ADA bridging ELISA).

signal change in competition ELISA (% reduction in OD) [%]	Binder
-4	B1
-97	B2
-96	B4

The binders below were run against pre-existing anti-scFv903 antibodies in human serum H125 (human) (assay: competition ADA bridging ELISA).

signal change in competition ELISA (% reduction in OD) [%]	Binder
-55	B1
-98	B2
3	B3
-97	B4

Each binder was assayed against pre-existing anti-scFv903 antibodies in human serum H135 (human) (assay: competition ADA bridging ELISA).

signal change in competition ELISA (% reduction in OD) [%]	Binder
-23	B1
-93	B2
-75	B3
-95	B4

Each binder was assayed against pre-existing anti-scFv903 antibodies in human serum H66 (human) (assay: competition ADA bridging ELISA).

signal change in competition ELISA (% reduction in OD) [%]	Binder
-3	B1
-97	B2
-96	B4

These binders were tested against pre-existing anti-scFv903 antibodies in human serum H8 (human) (assay: competition ADA bridging ELISA).

signal change in competition ELISA (% reduction in OD) [%]	Binder
-23	B1
-87	B2
-89	B3
-91	B4

The binders below were run against pre-existing anti-scFv903 antibodies in human serum H116 (human) (assay: competition ADA bridging ELISA).

signal change in competition ELISA (% reduction in OD) [%]	Binder
-43	B1
-98	B2
-33	B3
-97	B4

Each binder was assayed against pre-existing anti-scFv903 antibodies in human serum H20 (human) (assay: competition ADA bridging ELISA).

signal change in competition ELISA (% reduction in OD) [%]	Binder
-19	B1
-92	B2
-23	B3
-96	B4

These binders were tested against pre-existing anti-scFv903 antibodies in human serum H69 (human) (assay: competition ADA bridging ELISA).

signal change in competition ELISA (% reduction in OD) [%]	Binder
-88	B1
-92	B2
-6	B3
-75	B4

These binders were tested against pre-existing anti-scFv903 antibodies in human serum H59 (human) (assay: competition ADA bridging ELISA).

signal change in competition ELISA (% reduction in OD) [%]	Binder
-94	B1
-97	B2
-67	B3
-96	B4

These binders were tested against rabbit polyclonal Anti-scFv 903 IgG termed AB903-3 (rabbit) (assay: confirmatory ADA bridging ELISA, pre-incubation with 10, 100 or 1 mcg/ml scFv 903).

OD change upon pre-incubation [%]	Binder
60 to 95	B2
